Test results: the supplement of paper PMC9732359
± gives the uncertainty stated by the source.

assay: protein stability index of a GFP-peptide fusion (yeast GPS) (PSI 1-4); higher = more stable; sorted into four equal gates, so the index is relative within each strain; conditions: doa10∆
In short: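 Tiled 17-residue yeast protein peptides were fused downstream of GFP in a plasmid that also expresses Cherry, and the pooled library was carried in yeast. Mid-log cultures in leucine-free medium were sorted into four equal gates by GFP/Cherry fluorescence ratio, and plasmids from each gate were PCR-amplified and Illumina-sequenced, with reads assigned to strains by barcodes. The protein stability index for each peptide was each gate's read frequency times its gate number, summed.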

Row | Sequence | protein stability index
1 | VYINPSGEKIDFLLSDW [BRR2] | 1.61 ± 0.1
2 | VYTAIYNYCVNKSRSSG [CDC53] | 2.48 ± 0.074
3 | VYTLACRSCPYEFPIEG [RPC11] | 1.22 ± 0.16
4 | VYTQSNGKTRTLENTLK [RPS2] | 3.45 ± 0.17
5 | WAVTLDTSRPDLEWQEL [DSN1] | 3.35 ± 0.072
6 | WCTTCKSAENIIKMTIP [RET1] | 3.08 ± 0.077
7 | WDDHTKKPLSMALNKVL [CDC53] | 1.99 ± 0.069
8 | WDLVDERTKQRTAKAYL [PRP8] | 3.18 ± 0.12
9 | WEQLKITVVPVVAAAED [QCR6] | 1.89 ± 0.059
10 | WIKFDQELYNELCKKNE [RPN7] | 3.12 ± 0.13
11 | WKQDLTKEEAIKLASDA [PUP1] | 2.81 ± 0.19
12 | WKYNNFLQKFEIAFHLT [YML103C/NUP188] | 2.36 ± 0.048
13 | WLAEKFQKETNMKVTIL [PRP28] | 2.81 ± 0.18
14 | WNLLRSLYIFFTTLLES [YML103C/NUP188] | 2.08 ± 0.058
15 | WNVEKFKKDFEVNISSL [RPC40] | 2.03 ± 0.11
16 | WPIVQKTYEPVLNEDDL [RPN5] | 2.32 ± 0.068
17 | WPQSKNCEYEDPPNEGD [RPB3] | 3.45 ± 0.25
18 | WSEISNELPDIEALYDD [RPN2] | 3.49 ± 0.29
19 | WSSEFAKWAPTLRTISF [SNF2] | 2.36 ± 0.057
20 | YACISSRPGQSGRCDGY [RPS8A] | 3.02 ± 0.1

Row | Sequence | protein stability index
21 | YCDKNFRENMSKEETVD [PRE3] | 3.02 ± 0.076
22 | YDALLSINVHSNNITSG [RET1] | 2.52 ± 0.061
23 | YDRKKLPRKEVDDVLGG [RPC11] | 3.2 ± 0.1
24 | YDSDSDSSVEDSTDNEN [LIN1] | 3.08 ± 0.071
25 | YDSRTTIFSPEGRLYQV [PRE9] | 3.02 ± 0.1
26 | YDYYALQLLPLQKAVRG [SNF2] | 1.63 ± 0.05
27 | YEEFRDVAIENNTLSRY [RRP43] | 3.24 ± 0.042
28 | YEIRDIDQDIHGIVFQH [SSN2] | 2.5 ± 0.049
29 | YELYINKLTILGRDYPI [IRR1] | 1.31 ± 0.032
30 | YEYAEHDLLQIIHFHSH [SSN3] | 2.31 ± 0.062
31 | YFKLDLTSDLVYFGDEN [RRI2] | 2.09 ± 0.15
32 | YFLDVKCPGCLNITTVF [RPS27A] | 2.64 ± 0.054
33 | YGILSIDDLIHEIITVG [RPL7A] | 2.36 ± 0.079
34 | YGITHGLTNWAAAYATG [RPL5] | 2.17 ± 0.086
35 | YGNRAEQFLETDSDFAK [SRP68] | 3.15 ± 0.12
36 | YGPPGTGKTLLARACAA [RPT5] | 2.5 ± 0.13
37 | YGVSFFTIQSFVSSLSN [BRR2] | 1.47 ± 0.052
38 | YIKYNILLTSISRERDL [SRP68] | 1.69 ± 0.07
39 | YINDVHLLYPPHIIAVA [SSN8] | 1.74 ± 0.057

same assay, conditions: pdr5∆

Row | Sequence | protein stability index
40 | VYINPSGEKIDFLLSDW [BRR2] | 2.49 ± 0.097
41 | VYTAIYNYCVNKSRSSG [CDC53] | 2.62 ± 0.057
42 | VYTLACRSCPYEFPIEG [RPC11] | 1.36 ± 0.15
43 | VYTQSNGKTRTLENTLK [RPS2] | 3.16 ± 0.1
44 | WAVTLDTSRPDLEWQEL [DSN1] | 3.18 ± 0.065
45 | WCTTCKSAENIIKMTIP [RET1] | 3.1 ± 0.095
46 | WDDHTKKPLSMALNKVL [CDC53] | 2.29 ± 0.076
47 | WDLVDERTKQRTAKAYL [PRP8] | 3.6 ± 0.23
48 | WEHTAAEDQILANFVAK [SRB8] | 2.5 ± 0.17
49 | WEQLKITVVPVVAAAED [QCR6] | 2.14 ± 0.059
50 | WIKFDQELYNELCKKNE [RPN7] | 3.05 ± 0.28
51 | WKQDLTKEEAIKLASDA [PUP1] | 3.16 ± 0.14
52 | WKYNNFLQKFEIAFHLT [YML103C/NUP188] | 2.19 ± 0.032
53 | WLAEKFQKETNMKVTIL [PRP28] | 3.17 ± 0.11
54 | WNLLRSLYIFFTTLLES [YML103C/NUP188] | 1.58 ± 0.044
55 | WNVEKFKKDFEVNISSL [RPC40] | 2.98 ± 0.12
56 | WPIVQKTYEPVLNEDDL [RPN5] | 2.59 ± 0.11
57 | WSEISNELPDIEALYDD [RPN2] | 3.57 ± 0.25
58 | WSSEFAKWAPTLRTISF [SNF2] | 2.41 ± 0.043
59 | WTMAFRTMDDIKDSVRE [ECM29] | 2.5 ± 0.16

Row | Sequence | protein stability index
60 | YACISSRPGQSGRCDGY [RPS8A] | 3.21 ± 0.12
61 | YCDKNFRENMSKEETVD [PRE3] | 3.09 ± 0.073
62 | YDALLSINVHSNNITSG [RET1] | 2.66 ± 0.057
63 | YDRKKLPRKEVDDVLGG [RPC11] | 3.64 ± 0.14
64 | YDSDSDSSVEDSTDNEN [LIN1] | 2.95 ± 0.1
65 | YDSRTTIFSPEGRLYQV [PRE9] | 3.31 ± 0.075
66 | YDYYALQLLPLQKAVRG [SNF2] | 2.24 ± 0.044
67 | YEEFRDVAIENNTLSRY [RRP43] | 3.25 ± 0.043
68 | YEIRDIDQDIHGIVFQH [SSN2] | 2.6 ± 0.056
69 | YELYINKLTILGRDYPI [IRR1] | 1.57 ± 0.038
70 | YEYAEHDLLQIIHFHSH [SSN3] | 2.59 ± 0.054
71 | YFKLDLTSDLVYFGDEN [RRI2] | 2.47 ± 0.3
72 | YFLDVKCPGCLNITTVF [RPS27A] | 2.6 ± 0.055
73 | YGILSIDDLIHEIITVG [RPL7A] | 2.37 ± 0.1
74 | YGITHGLTNWAAAYATG [RPL5] | 2.43 ± 0.067
75 | YGNRAEQFLETDSDFAK [SRP68] | 2.99 ± 0.08
76 | YGPPGTGKTLLARACAA [RPT5] | 2.53 ± 0.081
77 | YGVSFFTIQSFVSSLSN [BRR2] | 1.32 ± 0.058
78 | YIKYNILLTSISRERDL [SRP68] | 1.58 ± 0.062
79 | YINDVHLLYPPHIIAVA [SSN8] | 1.46 ± 0.041
